According to IntAct's records for PubMed 18647389:

B1: RalBP1-associated Eps domain-containing protein 2 (Homo sapiens), Q8NFH8 (parent)
chain: MEAAAAAAAAAAAAAAAGGGCGSGPPPLLLSEGEQQCYSELFARCAGAAGGGPGSGPPEAARVAPGTATAAAGPVADLFRASQLPAETLHQITELCGAKRVGYFGPTQFYIALKLIAAAQSGLPVRIESIKCELPLPRFMMSKNDGEIRFGNPAELHGTKVQIPYLTTEKNSFKRMDDEDKQQETQSPTMSPLASPPSSPPHYQRVPLSHGYSKLRSSAEQMHPAPYEARQPLVQPEGSSSGGPGTKPLRHQASLIRSFSVERELQDNSSYPDEPWRITEEQREYYVNQFRSLQPDPSSFISGSVAKNFFTKSKLSIPELSYIWELSDADCDGALTLPEFCAAFHLIVARKNGYPLPEGLPPTLQPEYLQAAFPKPKWDCQLFDSYSESLPANQQPRDLNRMEKTSVKDMADLPVPNQDVTSDDKQALKSTINEALPKDVSEDPATPKDSNSLKARPRSRSYSSTSIEEAMKRGEDPPTPPPRPQKTHSRASSLDLNKVFQPSVPATKSGLLPPPPALPPRPCPSQSEQVSEAELLPQLSRAPSQAAESSPAKKDVLYSQPPSKPIRRKFRPENQATENQEPSTAASGPASAATMKPHPTVQKQSSKQKKAIQTAIRKNKEANAVLARLNSELQQQLKEVHQERIALENQLEQLRPVTVL
partner: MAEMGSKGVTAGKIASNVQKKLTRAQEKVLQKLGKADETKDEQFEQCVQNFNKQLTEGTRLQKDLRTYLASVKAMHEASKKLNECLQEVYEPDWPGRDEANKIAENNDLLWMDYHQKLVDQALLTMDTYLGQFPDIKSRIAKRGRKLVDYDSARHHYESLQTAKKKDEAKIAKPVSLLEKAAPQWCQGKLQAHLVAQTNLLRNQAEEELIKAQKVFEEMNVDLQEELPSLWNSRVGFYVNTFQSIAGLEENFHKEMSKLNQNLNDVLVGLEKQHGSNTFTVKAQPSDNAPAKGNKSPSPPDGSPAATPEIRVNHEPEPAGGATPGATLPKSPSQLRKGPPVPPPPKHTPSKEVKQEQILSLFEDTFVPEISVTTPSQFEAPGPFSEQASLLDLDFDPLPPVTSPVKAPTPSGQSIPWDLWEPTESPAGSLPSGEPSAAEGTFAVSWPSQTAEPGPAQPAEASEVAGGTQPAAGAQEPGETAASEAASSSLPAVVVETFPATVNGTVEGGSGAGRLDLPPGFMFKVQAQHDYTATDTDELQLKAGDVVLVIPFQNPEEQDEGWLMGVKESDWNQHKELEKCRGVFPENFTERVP
B2: RalBP1-associated Eps domain-containing protein 2 (Homo sapiens), Q8NFH8 (parent)
chain: B1 chain

Variants of: B1
Details: with bin1_human BIN1, O00499

effect of a mutation on the interaction | Variant
decreasing interaction | R483A

Variants of: B1
Details: with bin1_human BIN1, O00499
Remark: another data set of the same source

effect of a mutation on the interaction | Variant
disrupting interaction strength | R483A

Variants of: B1
Details: with bin1_human BIN1, O00499
Remark: another data set of the same source

effect of a mutation on the interaction | Variant
disrupting interaction | P447A

Variants of: B2
Details: with grb2_human GRB2, P62993

effect of a mutation on the interaction | Variant
disrupting interaction | P480A

Variants of: B2
Details: with grb2_human GRB2, P62993
Remark: another data set of the same source

effect of a mutation on the interaction | Variant
disrupting interaction | R483A

Variants of: B2
Details: with 1433z_human YWHAZ

effect of a mutation on the interaction | Variant
disrupting interaction | S493A

Variants of: B2
Details: with grb2_human GRB2, P62993
Remark: another data set of the same source

effect of a mutation on the interaction | Variant
disrupting interaction | P484A
